# Results as given in the nanobody polyreactivity screen of Harvey et al. (2022).
# Experiment: yeast display, Sf9 membrane polyspecificity reagent, FACS + sequencing; frameworks hold sequencing errors
# Outline: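 Genes from sorted yeast were amplified by colony PCR, read by MiSeq 2 × 250 sequencing and filtered on CDR length. These cells carried a synthetic nanobody library in Saccharomyces cerevisiae BJ5465 and were sorted by FACS into low and high (top ~1%) gates on anti-HA and streptavidin fluorescence. Polyreactivity is labelled according to the gate of origin.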
row,Sequence,polyreactivity (PSR sort gate)
1,QVQLVESGGGLVQAGGSLRLSCAASGSILARYAMGWYRQAPGKERELVAAISYNGGSTYYADSVKGRFTISRDNAKNTVYLQMNSRKPEDTAVYYCAKAYDTTLTYNYWGQGTQVTVSS,low polyreactivity
2,QVQLVESGGGLVQAGGSLRLSCAASGSILASYAMGWYRQAPGKERELVAAINRGGRTKYADSVKGRFTISRDNAKNTVYLQMNSLKPEDTAVYYCAKSDSQYEGDGYWGQGTQVTVSS,high polyreactivity
3,QVQLVESGGGLVQAGGSLRLSCAASGSILDGNAMGWYRQAPGKERELVAAITRSGGRTYYADSVKGRFTISRDNAKNTVYLQMNSLKPEDTAVYYCNVDVPGVRFEYWGQGTQVTVSS,low polyreactivity
4,QVQLVESGGGLVQAGGSLRLSCAASGSILDIYAMGWSRQAPGKERELVAGISTSGGSTYYADSVKGRFTISRDNAKNTVYLQMNSLKPEDTAVYYCAKDYGYQGHTRTLYWAYLEYDYWGQGTQVTVSS,low polyreactivity
5,QVQLVESGGGLVQAGGSLRLSCAASGSILDIYAMGWSRQAPGKERELVAGMSTTGGSTYYADSVKGRFTISRDNAKNTVYLQMNSLKPEDTAVYYCAKDYGYQGHTRTLYWAYLEYDYWGQGTQVTVSS,low polyreactivity
6,QVQLVESGGGLVQAGGSLRLSCAASGSILDIYAMGWYRQAPGKERELVASISWGGGSTYYADSVKGRFTISRDNAKNTVYLQMNSLKQEDTAVYYCNAVYDLYHYWKFYYWGQGTQVTVSS,low polyreactivity
7,QVQLVESGGGLVQAGGSLRLSCAASGSILDRNAMGWYRQAPGKERELVAAISRSRGSTYYADSVKGRFTISRDNAKNTVYLQMNSLKPEDTAVYYCNAYYPFYTLIYGGPVRYYNFDYWGQGPQVTVSS,high polyreactivity
8,QVQLVESGGGLVQAGGSLRLSCAASGSILDSNAMGWYRQAPGQERELVAAISRSGVSTHYADSVKGRFSISRDNAKNTVYLQMNSLKPEDTAVYYCARTGQSLYSRYYYWGQGTQVTVSS,low polyreactivity
9,QVQLVESGGGLVQAGGSLRLSCAASGSILEIYAMGWYRQAPGKESEFVASISWDVSSTYYADSVKGRFTISRDNAKNTVYLQMNSLKPEDTAVYYCATSLVWGLYDWYYDLSAAFDYWGQGTQVTVSS,low polyreactivity
10,QVQLVESGGGLVQAGGSLRLSCAASGSILEPYAMGWYRQAPGKERELVAAISSSGGSTRYADSVKGRFTISRDNAKNTVYLQMNSLKPEDTAVYYCAARFRAKFNYWGQGTQVTVSS,low polyreactivity
11,QVQLVESGGGLVQAGGSLRLSCAASGSILEVYAMGWYRQAPGKERELVAAISDGDSTYYADSVKGRFTISRDNAKNTVYLQMNSLKPEDTAVYYCAAEFVGTLWWYDDWGQGTQVTVSS,low polyreactivity
12,QVQLVESGGGLVQAGGSLRLSCAASGSILFANAMGWYRQAPGKERELVAAIRGSGSTYYADSVKGRFTISRDNAKNTVYLQMNSLKPEDTAVYYCAKRHLISIPDYGRHEYDYWGQGTQVTVSS,low polyreactivity
13,QVQLVESGGGLVQAGGSLRLSCAASGSILFTNAMGWYRQAPGKERELVAAISSGGSTYFADSVKGRFTISRDNAKNTVYLQMNSLKQEDTAVYYCAADQLNVGREYVEYDYWGQGTQVTVSS,low polyreactivity
14,QVQLVESGGGLVQAGGSLRLSCAASGSILFTNAMGWYRQAPGKERELVAAISSGGSTYYADSVKGRFTISRDNAKNTVYLQMNSLKPEDTAVYYCAASDHYRWYVHRWEDPFYYWGQGTQVTVSS,low polyreactivity
15,QVQLVESGGGLVQAGGSLRLSCAASGSILGGNAMGWSRQAPGKERELVAAITFSGGGTYYADSVKGRFTISRDNAKNTVYLQMNSLKPEDTAVYYCAADKDGYTYEFDYWGQGTQVTVSS,low polyreactivity
16,QVQLVESGGGLVQAGGSLRLSCAASGSILGHYAMGWYRQAPGKERELVAAISWSGGSTYYADSVKGRFTISRDNAKNTVYLQMNSLKPEDTAVYYCNAAAILYTSAGSLYWYDYWGQGTQVTVSS,low polyreactivity
17,QVQLVESGGGLVQAGGSLRLSCAASGSILGIKVMGWYRQAPGKERELVAAISRRGGSTYYADSVKGRFTISRDNAKNTVYLQMNSLKPEDTAVYYCAATRTARTMGYWGQGTQVTVSS,high polyreactivity
18,QVQLVESGGGLVQAGGSLRLSCAASGSILGRNAMGWYRQAPGKERELVAGITWSTVSTYYADSVKGRFTISRDNAKNTVYLQMNSLKPEDTAVYYCAAAPNLWAYRRWYYTYYYWGQGTQVTVSS,high polyreactivity
19,QVQLVESGGGLVQAGGSLRLSCAASGSILGTYAMGWYRQAPGKERELVAAISSSGRTSYADSVKGRFTISRDNAKNTVYLQMNSLKPEDTAVYYCNASNYIVLINDPDAAPWLYDYWGQGTQVTVSS,low polyreactivity
20,QVQLVESGGGLVQAGGSLRLSCAASGSILGTYAMGWYRQAPGKERELVARISRGGSTNYADSVKGRFTISRDNAKNTVYLQMNILKPEDTAVYYCAKRLYLPESWRYYYWGQGTQVTVSS,high polyreactivity

row,Sequence,polyreactivity (PSR sort gate)
1,QVQLVESGGGLVQAGGSLRLSCAASGSILGYYAMGWYRQAPGKERELVAAITASGGSTYYADSVKGRFTISRDNAKNTVYLQMNSLKPEDTAVYYCAARRIAPYGRYDYWGQGTQVTVSS,low polyreactivity
2,QVQLVESGGGLVQAGGSLRLSCAASGSILGYYAMGWYRQAPGKERELVAITSGDSTYYADSVKGRFTISRDNAKNTVYLQMNSLKPEDTAVYYCNARYSWKYDYWGQGTQVTVSS,high polyreactivity
3,QVQLVESGGGLVQAGGSLRLSCAASGSILGYYVMGWYRQAPGKERELVAAISWSSGSTYYADSVKGRFTISRDNAKNTVYLQMNSLKPEDTAVYYCNAGGVYDEFNYWGQGTQVTVSS,low polyreactivity
4,QVQLVESGGGLVQAGGSLRLSCAASGSILHAYAMGWYRQAPGKEREFVAAIRRRGGSTYYADSVKGRFTISRDNAKNTVYLQMNSLKPEDTAVYYCAARFPLIGDSGGKSDYWGQGTQVTVSS,high polyreactivity
5,QVQLVESGGGLVQAGGSLRLSCAASGSILIWNTMGWYRQAPGKERELVAAISSGASTYYADSVKGRFTISRDNAKNTVYLQMNSLKPEDTAVYYFYVDLPRVLTDDSWGQGTQVTVSS,low polyreactivity
6,QVQLVESGGGLVQAGGSLRLSCAASGSILKNNAMGWYRLAPGKERELVAAITYSSGSTYYADSVKGRFTISRDNAKNTVYLQMNSLKPEDTAVYYCAAVYRYRYSFSGGYYWGQGTQVTVSS,low polyreactivity
7,QVQLVESGGGLVQAGGSLRLSCAASGSILNGYAMGLYRQAPGKERELVAAISGSGGSTHYADSVKWRFTISRDNAKNTVYLQMNSLKPEDTAVYYCAAAYKWTYYWGQGTQVTVSS,high polyreactivity
8,QVQLVESGGGLVQAGGSLRLSCAASGSILNNYAMGWYRQAPGKERELVAAISSSGGTNYADSVKGRFTISRDNAKNTVYLQMYSLKPEDTAVYYCNADVLDGGYDYWGQGTQVTVSS,low polyreactivity
9,QVQLVESGGGLVQAGGSLRLSCAASGSILQDYAMGWYRQAPGKERELVAAISNSGDSTYYADSVKGRFTISRDNAKNTVYLQMNSLKPEDTAVYYCNAAVYPYALYSGGLDYDYWGQGTQVTVSS,low polyreactivity
10,QVQLVESGGGLVQAGGSLRLSCAASGSILQRNAMGWYRQAPGKERELVAAISSSGDNTYYADSVKGRITISRDNAKNTVYLQMNSLKPEDTAVYYCATDADIYFQEYDYWGQGTQVTVSS,low polyreactivity
11,QVQLVESGGGLVQAGGSLRLSCAASGSILQTYAMGWYRQAPGKERELVAAITWSVVSTYYADSVKGRFTISRDNAKNTVYLQMNSLKPEDTAVYYCNARSFGDPGNAYDYWGQGTQVTVSS,high polyreactivity
12,QVQLVESGGGLVQAGGSLRLSCAASGSILRGYAMGWYRQAPGKERELVAAITWNGGSTYYADSVKGRFTISRDNAKNTVYLQMNSLKPEDTAVYYCNRAIGPYSYPDNYWGQGTQVTVSS,high polyreactivity
13,QVQLVESGGGLVQAGGSLRLSCAASGSILRLYVMGWYRQAPGKERELVADISDRGGSTYYADSVKGRFTISRDNAKNTVYLQMNSLKPEDTAVYYCAAEWGQSGGGGYYYWGQGTQVTVSS,low polyreactivity
14,QVQLVESGGGLVQAGGSLRLSCAASGSILRSNAMGWYRQAPGKERELVAVISNDDSTYYADSVKGRFTISRDNATNTVYLQMNSLKPEDTAVYYCNAVYYYFFRWHPIYDSWGQGTQVTVSS,low polyreactivity
15,QVQLVESGGGLVQAGGSLRLSCAASGSILRTYTMGWYRQAPGKERELVAAISSSGGRTYYADSVKGRFTISRDNAKNTVYLQMNSLKPEDTAVYYCNAGGYRYRSYDYWGQGTQVTVSS,high polyreactivity
16,QVQLVESGGGLVQAGGSLRLSCAASGSILSAYAMGWYRQAPGKERELVAAISWSGGSTYYADSVKGRFTISRDNAKNTVYLQMNSLKPEDTAVYYCATVNKKWRRYDYWGQGTQVTVSS,high polyreactivity
17,QVQLVESGGGLVQAGGSLRLSCAASGSILSGYAMVWYRQAPGTERELVAAITSGGDTNYADSVKGRFTISRDNAKNTVYLQMNSLKPEETAVYYCAADPSYLGLFGYDYWGQGTQVTVSS,low polyreactivity
18,QVQLVESGGGLVQAGGSLRLSCAASGSILSINGMGWYRQAPGKERELVATIDGSDGTTFYADSVKGRFTISRDNAKNTVYLQMNSLKPEDTAVYYCAAENFWQTKEYDYWGQGTQVTVSS,low polyreactivity
19,QVQLVESGGGLVQAGGSLRLSCAASGSILSQYAMGWYRQAPGKERELVAAITYSGGSTHYADSVKGRFTISRDNAKNTVYLEMNSLKPEDTAVYYCAAKGPRRWGSGLDYWGQGTHVTVSS,low polyreactivity
20,QVQLVESGGGLVQAGGSLRLSCAASGSILSWYAMGWYRQAPGKERELVAAITSGASTYYADSVKGRFTISRDNAKNTVYLQMNSLKPEDTAVYYCAAYPPSQRAEYDYWGQGTQVTVSS,low polyreactivity
